Source: patent US20220403048A1, “BINDING MOLECULES TO ARGINASE II [ARG2]” (Cancer Research Technology Limited, priority 2019, published 2022)
Positions count from the first letter of the chain named.

T1: human ARG2 (Homo sapiens, UniProt P78540, E275H/R327K)
T1 construct: His10 (after a GGG linker) (C); made in house; host or cells: E. coli BL21 (DE3)
T1 sequence (P78540 23-354 E275H/R327K): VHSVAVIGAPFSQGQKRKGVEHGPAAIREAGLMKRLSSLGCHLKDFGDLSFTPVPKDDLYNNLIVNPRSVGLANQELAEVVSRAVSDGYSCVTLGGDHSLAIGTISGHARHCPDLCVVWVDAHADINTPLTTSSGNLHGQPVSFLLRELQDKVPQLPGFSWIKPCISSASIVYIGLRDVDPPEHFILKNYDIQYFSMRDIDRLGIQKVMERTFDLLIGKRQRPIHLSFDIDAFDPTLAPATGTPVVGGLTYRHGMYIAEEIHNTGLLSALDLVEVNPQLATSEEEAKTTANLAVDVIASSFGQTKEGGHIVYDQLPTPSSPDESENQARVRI

T2: human ARG1 (Homo sapiens, UniProt P05089)
T2 construct: Avi tag (N); His10 (after a GGG linker) (C); made in house; host or cells: E. coli BL21 (DE3)
T2 sequence (P05089 with tags, fused parts or gaps): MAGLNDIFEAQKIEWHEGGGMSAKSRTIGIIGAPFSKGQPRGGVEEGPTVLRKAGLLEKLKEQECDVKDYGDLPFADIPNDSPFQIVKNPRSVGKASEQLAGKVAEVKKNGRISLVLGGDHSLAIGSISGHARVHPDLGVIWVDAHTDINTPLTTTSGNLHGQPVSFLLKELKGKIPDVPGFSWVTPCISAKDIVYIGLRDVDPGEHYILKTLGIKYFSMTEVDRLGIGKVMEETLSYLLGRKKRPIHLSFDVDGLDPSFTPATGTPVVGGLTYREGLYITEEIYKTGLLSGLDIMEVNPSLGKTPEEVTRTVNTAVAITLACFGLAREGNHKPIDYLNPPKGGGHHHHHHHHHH

B1: C0021032 Fab (antibody, V domains shown)
VH: EVQLLESGGGLVQPGGSLRLSCAASGFTFSSYAMSWVRQAPGKGLEWVSAYGYGIGSTYYADSVKGRFTISRDNSKNTLYLQMNSLRAEDTAVYYCARLRADLGLYMDLWGRGTLVTVSS
VL: QSVLTQPPSVSAAPGQKVTISCSGSSSNIGNHYVSWYQQLPGTAPKLLIYDNSERPSGIPDRFSGSKSGTSATLGITGLQTGDEADYYCGTWDSSLSALVFGGGTKLTVL
B2: C0021118 Fab (antibody, V domains shown)
VH: B1 VH with Y51S, G52L, Y53T, G54N, I55P
VL: B1 VL with G90A, W92Y, S94T, S95N
B3: C0021141 Fab (antibody, V domains shown)
VH: B1 VH with S30Y, S31P, Y32D, A33P, M34Q, S35G
VL: B1 VL with K17E, G30D
B4: C0021142 Fab (antibody, V domains shown)
VH: B1 VH with Y51H, G52T, Y53H, G54S, I55P
VL: B1 VL
B5: C0021097 Fab (antibody, V domains shown)
VH: B1 VH with Y51I, G52S, G54H, I55P
VL: B1 VL with D51N, N52T, S53F, E54A
B6: C0021021 Fab (antibody, V domains shown)
VH: B1 VH with A50S, Y51I, G52L, Y53F, G54S, I55P
VL: B1 VL
B7: C0021096 Fab (antibody, V domains shown)
VH: EVQLLESGGGLVQPGGSLRLSCAASGFTFSSYAMSWVRQAPGKGLEWVSAISGYSGYYADSVKGRFTISRDNSKNTLYLQMNSLRAEDTAVYYCARLRADLGLYMDLWGRGTLVTVSS
VL: B1 VL with D51N, N52T, S53E, E54R, P56M
B8: C0021101 Fab (antibody, V domains shown)
VH: B7 VH with L45P, Y54F, G56P
VL: B1 VL with D51N, S53R, E54S, R55P, P56T
B9: C0021128: anti-ARG2 antibody, VH SEQ ID NO: 162, VL SEQ ID NO: 167 (antibody, listed as Homo sapiens, V domains shown)
VH: EVQLLESGGGLVQPGGSLRLSCAASGFTFQYEVAAWVRQAPGKGLEWVSAISGPIPKGYYADSVKGRFTISRDNSKNTLYLQMNSLRAEDTAVYYCARLRADLGLYMDLWGRGTLVTVSS
VL: B1 VL with S53A, E54I, R55E, P56S, E84G, S95N
modifications: C0021128
B10: C0021144: anti-ARG2 antibody, VH SEQ ID NO: 252, VL SEQ ID NO: 257 (antibody, listed as Homo sapiens, V domains shown)
VH: B9 VH with Q30R, E32D, V33Y, A34H, A35V, P54S, I55G, P56G, K57S, G58T
VL: QSVLTQPPSVSAAPGQKVTVSCSGSSSNIGNHHVSWYQQLPGTAPKLLIYDTTVLSSGVPDRFSGSKSGTSATLGITGLQTGDEADYYCGTWDELTSNLVFGGGTKLTVL
modifications: C0021144
B11: C0021155: anti-ARG2 antibody, VH SEQ ID NO: 262, VL SEQ ID NO: 267 (antibody, listed as Homo sapiens, V domains shown)
VH: EVQLLESGGGLVQPGGSLRLSCEASGFTFRYDYHVWVRQAPGKGLEWVSAISGSGGSTYYADPVKGRFTISRDNSKNTLYLQMNSLRAEDTAVYYCARLRADLGLYMDLWGRGTLVTVSS
VL: B10 VL with Q1R, V20I, H33Y, V59I, K106R
modifications: C0021155

These molecules were tested against T1, human ARG2 (assay: Bio-Layer Interferometry (OctetRED) binding kinetics, human ARG2). Conditions: Fab as analyte; streptavidin capture; analyte 1.8 to 120 nM; affinity-matured antibodies.
Text: (§1) The OctetRED (Pall ForteBio) instrument was used to assess the kinetic parameters of the interactions between C0020187 and recombinantly produced human ARG2, cynomolgus ARG2 and human ARG1. The Octet biosensor uses an optical analytical technique that analyses the interference pattern of white light reflected from two surfaces: a layer of immobilised protein on the sensor tip, and an internal reference layer. Any changes in binding at the biosensor tip result in a shift in interference pattern, which can be measured in real time. Molecules associating with or dissociating from ligands at the biosensor tip shift the interference pattern and generate a response on the Octet system which is recorded by the acquisition software.
(§2) Typically, a defined concentration of the analyte species is brought into contact with the coupled ligand and any binding is detected as an increased in signal (association phase). This is followed by a period of buffer rinse, during which dissociation of the analyte species from the surface immobilised ligand can be observed as a decrease in signal (dissociation phase). Repetition of this with a range of analyte concentrations provides data for the analysis of binding kinetics.
(§3) An Octet Kinetics Buffer (PBS containing 0.01% BSA and 0.002% Tween20) is typically used as the diluent buffer for the analyte samples and as the flow buffer during the dissociation phase. The experimental data is recorded over time as shift in interference pattern (nm) over time, which is directly proportional to the optical thickness at the biosensor tip, which in turn is an approximate measure of the mass of analyte bound. The proprietary Octet Data Analysis software package can then be used to process data and fit binding models to the data sets. Returned association (ka, M^−1 s^−1) and dissociation (kd, s^−1) rate constants allow calculation of dissociation (KD, M) affinity constants.
(§4) The affinity of binding between the Fab of C0020187 and human ARG2, cynomolgus ARG2 and human ARG1 was estimated using assays in which the biotinylated ARG antigen was captured on a streptavidin sensor tip. A fresh sensor tip was used for each measurement and no regeneration was used. A series of dilutions of the C0020187 Fab (3.25-240 nM) were individually placed in contact with the ligand surface for a sufficient amount of time to observe sensorgrams that could be fitted to an appropriate binding model with confidence (typically 5 minutes), followed by an appropriate length of dissociation time (typically 10 minutes). Blank reference (0 nM Fab) data were subtracted from each dataset to reduce the impact of any buffer artefacts or non-specific binding effects. An appropriate binding model was then fitted simultaneously to the data from each analyte titration using the Octet Evaluation software.
(§5) Example results for C0020187 are shown in Table 9, showing the association rate constants (ka), dissociation rate constants (kd) and dissociation constants (KD). These parameters were derived from a 1:1 binding fit to the data.
(§6) The affinities of the affinity-matured antibodies to human ARG2 were measured on the OctetRED system as described in section 1.15 using the streptavidin capture method. Typically, an analyte titration range of 1.8 to 120 nM was used.
The affinities of the second-generation antibodies to human ARG2 were measured on the OctetRED system. A screening assay which stably captures His-tagged ARG2 as the ligand on an anti-His surface was utilised to screen the second-generation candidates as Fabs at an analyte range of 1.8 to 120 nM, with an association time of 5 minutes and a dissociation time of 10 minutes. Sensors were regenerated using 10 mM glycine pH 1.5 after each cycle. Based on this assay, six candidates with estimated affinities in the sub-nanomolar range were identified, and they were further profiled using an extended assay which is more suitable for antibodies of high affinities. […]

| ka [M⁻¹ s⁻¹] | kd [s⁻¹] | Molecule |
| --- | --- | --- |
| 427000 | 0.00228 | B1 |
| 139000 | 0.00114 | B2 |
| 326000 | 0.00108 | B3 |
| 399000 | 0.0011 | B4 |
| 295000 | 0.00146 | B5 |
| 473000 | 0.002 | B6 |
| 441000 | 0.00154 | B7 |
| 314000 | 0.00107 | B8 |
| 266000 | 0.000674 | B9 |

Same assay, conditions: second-generation Fab; extended assay: association 10 min, dissociation 40 min, 0.47 to 30 nM, streptavidin surface with bio-ARG2

| ka [M⁻¹ s⁻¹] | kd [s⁻¹] | Molecule |
| --- | --- | --- |
| 195000 | 6.59e-05 | B10 |
| 159000 | 5.67e-05 | B11 |

Each molecule was assayed on cynomolgus ARG2 (assay: Bio-Layer Interferometry (OctetRED) binding kinetics, cynomolgus ARG2). Conditions: Fab as analyte; cyno ARG2 ligand; affinity-matured antibodies.
cynomolgus ARG2, sequence (as listed by the source): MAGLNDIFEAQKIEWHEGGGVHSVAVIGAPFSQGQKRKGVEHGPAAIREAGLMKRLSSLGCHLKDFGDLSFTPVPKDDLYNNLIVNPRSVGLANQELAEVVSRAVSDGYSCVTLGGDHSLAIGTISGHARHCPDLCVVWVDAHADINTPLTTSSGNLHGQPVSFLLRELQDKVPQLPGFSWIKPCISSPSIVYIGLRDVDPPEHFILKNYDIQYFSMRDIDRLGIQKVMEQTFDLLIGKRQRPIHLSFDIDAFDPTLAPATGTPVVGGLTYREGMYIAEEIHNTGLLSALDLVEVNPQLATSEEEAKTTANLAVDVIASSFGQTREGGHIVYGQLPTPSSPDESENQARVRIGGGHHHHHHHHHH
Text: as §1, §2, §3, §4, §5, §6
The affinities of some of these antibodies to cynomolgus ARG2 were determined using the same assay, and the derived kinetic parameters are shown in Table 21.

| ka [M⁻¹ s⁻¹] | kd [s⁻¹] | Molecule |
| --- | --- | --- |
| 437000 | 0.000771 | B9 |

These molecules were tested against T2, human ARG1 (assay: Bio-Layer Interferometry (OctetRED) binding, human ARG1). Conditions: Fab analyte up to 120 nM, screening assay on anti-His surface.
Procedure: as §4
(§7) The binding of affinity-matured antibodies to human ARG1 was also tested on the OctetRED system using a screening assay which stably captures […] as the ligand on an anti-His surface. The Fabs were typically tested in an analyte range of 1.8 to 120 nM, with an association time of 5 minutes and a dissociation time of 10 minutes. Sensors were regenerated using 10 mM glycine pH 1.5 after each cycle.
as §7, with “Binding” for “The binding”, “the second-generation” for “affinity-matured”, “ARG” for “ARG1”, “were” for “were typically”, “as” for “in an”, “up” for “range of 1.8”

| Results, binding to human ARG1 (BLI) | Molecule |
| --- | --- |
| No binding observed | B9 |
| No binding observed | B10 |
| No binding observed | B11 |
